Patent publication US20110136223A1 (Genentech, published 2011)

Legend:
[1] = biological target: T1, recombinant soluble rat GDNFRα (rat, UniProt Q62997 25-430, limits assumed); assay: binding of biotinylated NTN
T1 construct: also called rGDNFRα; GFR-alpha-1
T1 sequence: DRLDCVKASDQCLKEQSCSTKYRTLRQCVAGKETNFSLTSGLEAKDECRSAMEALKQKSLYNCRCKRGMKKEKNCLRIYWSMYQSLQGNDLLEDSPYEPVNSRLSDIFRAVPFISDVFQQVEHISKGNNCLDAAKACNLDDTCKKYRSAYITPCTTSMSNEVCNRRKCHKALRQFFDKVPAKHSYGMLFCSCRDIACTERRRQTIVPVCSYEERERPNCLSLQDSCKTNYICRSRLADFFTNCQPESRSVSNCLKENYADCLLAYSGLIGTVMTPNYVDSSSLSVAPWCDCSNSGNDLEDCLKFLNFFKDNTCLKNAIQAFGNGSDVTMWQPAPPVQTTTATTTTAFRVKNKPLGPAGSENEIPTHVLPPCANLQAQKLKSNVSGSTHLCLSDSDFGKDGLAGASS

[2] = biological target: T1, recombinant soluble rat GDNFRα; assay: competition binding of 125I-rGDNF to soluble rGDNFRα, Scatchard analysis
[3] = biological target: T2, rat NTNRα, endogenous on embryonic (E14) rat spinal motoneurons (rat); assay: cell-based or functional assay
T2 sequence (chain, GPI-linked): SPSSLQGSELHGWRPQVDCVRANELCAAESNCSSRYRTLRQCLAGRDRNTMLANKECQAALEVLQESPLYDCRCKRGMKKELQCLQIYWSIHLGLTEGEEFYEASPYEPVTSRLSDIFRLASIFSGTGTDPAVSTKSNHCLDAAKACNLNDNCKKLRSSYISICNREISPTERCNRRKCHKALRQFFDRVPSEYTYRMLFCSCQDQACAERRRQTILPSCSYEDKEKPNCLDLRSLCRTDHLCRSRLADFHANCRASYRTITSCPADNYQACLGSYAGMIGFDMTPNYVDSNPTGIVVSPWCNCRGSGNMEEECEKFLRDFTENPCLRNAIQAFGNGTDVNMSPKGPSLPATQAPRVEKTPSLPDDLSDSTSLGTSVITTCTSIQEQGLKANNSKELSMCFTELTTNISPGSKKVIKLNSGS

[4] = biological target: T1, recombinant soluble rat GDNFRα; assay: displacement of 125I-rGDNF from soluble GDNFRα by unlabeled NTN (10 nM)

B1: mouse Neurturin (ligand, UniProt P97463 96-195, looked up)
chain: PGARPCGLRELEVRVSELGLGYTSDETVLFRYCAGACEAAIRIYDLGLRRLRQRRRVRRERARAHPCCRPTAYEDEVSFLDVHSRYHTLQELSARECACV
modifications: 125I-labelled when used as tracer
notes: also called mouse NTN; mNTN
Kd [1]: > 1000 µM

B2: rat glial cell line-derived neurotrophic factor (ligand, UniProt Q07731 78-211, looked up)
chain: SPDKQAAALPRRERNRQAAAASPENSRGKGRRGQRGKNRGCVLTAIHLNVTDLGLGYETKEELIFRYCSGSCEAAETMYDKILKNLSRSRRLTSDKVGQACCRPVAFDDDLSFLDDSLVYHILRKHSAKRCGCI
modifications: 125I-labelled when used as tracer (iodinated either on tyrosine by the Bolton Hunter method or on lysine using lactoperoxidase)
notes: also called rGDNF; rat GDNF
Kd [2]: 3 pM

B3: Neurturin (NTN), species not stated at the place of use (ligand, UniProt Q99748 96-197, looked up, species assumed)
Neurturin: ARLGARPCGLRELEVRVSELGLGYASDETVLFRYCAGACEAAARVYDLGLRRLRQRRRLRRERVRAQPCCRPTAYEDEVSFLDAHSRYHTVHELSARECACV
reduction of the motoneuron survival response to NTN after PIPLC treatment (FIG. 7C) [3]: 50 to 90%
survival of E14 rat spinal motoneurons, counted 72 hours after addition of factor [3]: 50%
Kd [4]: > 0.001 µM
